{"source": "the supplement of paper PMC12636428"}
{"test_system": "Saccharomyces cerevisiae", "assay": "transcriptional activation domain activity (GFP:mCherry ratio, weighted mean of sorted bins, harmonized to initial dataset scale) (arbitrary fluorescence ratio units); higher = stronger transcriptional activation", "details": "beta-estradiol 1 µM; induction time 4 h", "in_short": "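Sorting into 8 bins by GFP:mCherry ratio followed a 4-hour hold at 30 °C after cultures were diluted 1:5 into SC with 1 uM beta-estradiol. The yeast diploids carried a GFP reporter and had barcoded protein tiles, fused to an estradiol-inducible synthetic transcription factor, integrated at URA3. Barcodes were then sequenced, and tiles with under 50 reads were removed. Activation activity is the read-weighted mean of bin median fluorescence, averaged across barcodes and linearly mapped onto the initial dataset scale.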"}
{"sequence": "GHERERGSGREKRGGERDATGRRERDRESGRESRESRESSRRERGSRDEGRRD", "transcriptional activation domain activity": 39800}
{"sequence": "HQLGLVMLGMRCDLMRWMVCMDGIEYAGDIVIYCPALLLQLQCIVHTYGWAAR", "transcriptional activation domain activity": 41700}
{"sequence": "EQGQNLQGLLEFMCFEVGPMFLDLIIAFVYVYTLFDLYMSMILLFVGLAYVWI", "transcriptional activation domain activity": 33200}
{"sequence": "KAGEAKTATSKGAGDEEEGTQKKKGTSSRKKATGTMGNGEVEIGNAGSSEKKK", "transcriptional activation domain activity": 36200}
{"sequence": "KQYCVRPNSGRIEPGREVEVSVLLQAMKQEPAPDARCRDKFLVQSVTITSDQE", "transcriptional activation domain activity": 20500}
{"sequence": "LLLESEPLFRCTLPTIRDNISAYLSFLQIPNGNATEELPQWMPYILLIFEILL", "transcriptional activation domain activity": 54400}
{"sequence": "VLGELSRFAGGPEETPIHIGTLYYLNVHTAPPYFWQRCQALLYRNTLLLSWIA", "transcriptional activation domain activity": 52200}
{"sequence": "TNAENSSQPSLAQWAKGREGVLMISSDVISNVQISIGKSRLASLLISLCLQRM", "transcriptional activation domain activity": 47300}
{"sequence": "EDAGDDAAPSAKKANVSKKRKKADESDGENDKPVKTPKTKLKLTTKTPKEPSA", "transcriptional activation domain activity": 36100}
{"sequence": "ALNTFLDGLVFQLFPMVADLWIAAAYFFVVFDAYYSLMVISVTWFYIWMTIYM", "transcriptional activation domain activity": 55200}
{"sequence": "EMGLSTAPGHQTAEFTITGIGLILKTLWLCADLITFLLSLQRLIFHALVLLFS", "transcriptional activation domain activity": 64300}
{"sequence": "MLVLLLLLLLLLLLLFLLLPLLLLLPLLLCLYMPCIVRCSNHEVHILLISGTG", "transcriptional activation domain activity": 72900}
{"sequence": "MAIQAFFVICIIKILLYFLFFFFLFLSLLLYTYMYIHICAYVFYKIEKHVKSM", "transcriptional activation domain activity": 51000}
{"sequence": "MRYRVNYMSTQGIHYSPFLPWIINIFKPNIMLICLFSFLPYFILFIMKSMLVL", "transcriptional activation domain activity": 74600}
{"sequence": "TDDYFQTVLMSGLLRVLKDPASSGQHHTVIEAIMAIFKTWIMLAFAAVTRSSV", "transcriptional activation domain activity": 56900}
{"sequence": "PEQSSSNAVSDAADQLANVKLEDGTNAAASSAPRTRKPRARKPKRKAAAANAS", "transcriptional activation domain activity": 12100}
{"sequence": "KQSWSYFYKVLQGLLMDLFFIITIPIYFYYYLPNWNPPLWTLLDFTTLESLNF", "transcriptional activation domain activity": 69000}
{"sequence": "GSMGKVKLGVSSISGEKVAIKIIPRFTSTAAAHRPPPPTPSNEPSGSSRRPSS", "transcriptional activation domain activity": 7050}
{"sequence": "RNGKRTRNARKLRKPRRSRRRGEEKKKPNASALKRQRRREKKQEEELRRKQKR", "transcriptional activation domain activity": 47800}
{"sequence": "MYGYCLLFYLFLFSFISLFYFYFYFYILYFLLLILIFFYFTTVLVSFHFILFF", "transcriptional activation domain activity": 43400}
{"sequence": "FPRLVGCIAASLEGLPSTRNGRTAYCVLRVVASYFLCLIRNLMFSDLPVVRCR", "transcriptional activation domain activity": 68700}
{"sequence": "MPPRYIRYADRAVIENLSWYYWVFNPIMIGLYGPVRTIIDIYFRYFYNCILLF", "transcriptional activation domain activity": 40100}
{"sequence": "EVMKIHPVQKQTRAGQRTRFKAYVVVGDSNGHVGLGVKCSKEVATAIRSAIIL", "transcriptional activation domain activity": 38700}
{"sequence": "LFFHILFPFFFFFQFLFSLFFFSFFFHSFFFLYFLFFPGGFFFQFCCFFFPSF", "transcriptional activation domain activity": 44800}
{"sequence": "PDVEQMVLHFYLQLCYEFFDRCPTLFHASLGLINPSTSCCCGLLFLLFFVFLY", "transcriptional activation domain activity": 72800}
{"sequence": "EKERGRERERKERKVNGAWIKTKPKKRRDDSARARRHTRRRDVSSSASPTREM", "transcriptional activation domain activity": 25800}
{"sequence": "KRNKPNACGGCGAESDENGGALMMCSRCKDRKYCGAECQKTHWKVHKKVCEVA", "transcriptional activation domain activity": 58500}
{"sequence": "TSAFGGGNTGGGLFGQQNKPTTGFGSSPAPAGGLFGGGSGTTTSTPAFGAAAA", "transcriptional activation domain activity": 37300}
{"sequence": "LPDLQWLVKFLVVAAHETGKNIVCRRAPGNLLSGNLVTLVSNVVLQRSPKRSY", "transcriptional activation domain activity": 47900}
{"sequence": "HSLSTIGIDVSHWEPFPLASMQRALAYELHMFCPTLRTVIVWLRRYRYMWRWS", "transcriptional activation domain activity": 45200}
{"sequence": "YQTGYFSEAHFFLFFLFFYFRKSFSFQSNCISYTLPFGLLPIFFSTTIVLFWF", "transcriptional activation domain activity": 66400}
{"sequence": "MWTFGMIQLYYSPYWGDTRWFWLDYPKTLLSPTFKWYYLIQFAFWLQQLLLAL", "transcriptional activation domain activity": 73400}
{"sequence": "TSDTGKKRQIKEEAEEESEEEPPTKRQRRKPVEEKETPKKAAAKPKADKVPAK", "transcriptional activation domain activity": 40500}
{"sequence": "WHVAYPLVATGLCVAPQEFFLKHWLAFLREKGTRSFVLNGMLRLLWTYLYRCQ", "transcriptional activation domain activity": 45800}
{"sequence": "PSLKCVSLTYDELVRIVAQLLQKAFFKRFPSLKERFYSLVLSFLKKAMVPTNK", "transcriptional activation domain activity": 40500}
{"sequence": "LSSFALLSSGYFLDVFFLFFCFFVFFVFPFLFLLSTVNTHAIFFFFLSFSFVI", "transcriptional activation domain activity": 60300}
{"sequence": "PAEVKLIWTRPVTLTKVIFVFVRYSIALCQVTAVYVLLIVRVYTLWDHRRAIL", "transcriptional activation domain activity": 70300}
{"sequence": "QGRTLDVTRAVSRDRAEKLRETGERTRERKDKRNLYLMREGVIFVSTPSASTL", "transcriptional activation domain activity": 39700}
{"sequence": "PDLSIYMVDAFVHVLITAGLRDSAAVLHERIMSEFLDRILLILRAAVRLNKII", "transcriptional activation domain activity": 62400}
{"sequence": "RHAIVVKRVIRMSGKGKMSRMSALVVVGDGKGMVGFGEAKDPNAGKAGRKAFQ", "transcriptional activation domain activity": 32800}
{"sequence": "QQEGLKAELPHDFLFQHGTDDTMYNLTDDLSSSLSSSINSDMMTPNTYSSSFS", "transcriptional activation domain activity": 65000}
{"sequence": "PLALDFPPLGHMVELVDVVMWLCGRAGELPMWPQKIFNFNWIELSMKYPHHFI", "transcriptional activation domain activity": 50500}
{"sequence": "KKNRHGKFAYSDRYNLSEYIIEQLSEYDDIDLVKPWHRKLMLLHPFVILWVFF", "transcriptional activation domain activity": 60600}
{"sequence": "SGKLVFGPVSVFNGNVSLRIKKPLKGMTLTVTFNGVAEVDKYLFTFLNISHEV", "transcriptional activation domain activity": 57800}
{"sequence": "FRMVLLVYQVAWAVHVYRTRNIALAYLNNYARMMYAIRSYNYQCLFHQIDLEG", "transcriptional activation domain activity": 57100}
{"sequence": "GSDAPASGRAKSKTPKATGAKNGGKGGKGDATEEAEAKREEGGEEKRAAKKSK", "transcriptional activation domain activity": 20000}
{"sequence": "TMEMAWLDMGRFFYFLFFYFLFFLLSSFFVFFYSFIYFFFSLLLFFFILWLEM", "transcriptional activation domain activity": 45900}
{"sequence": "LIRIKDFTPNEVAAVVTYYSCRTNGMIPLTGRKWLGRIICRCLPLFDMLLFYR", "transcriptional activation domain activity": 37500}
{"sequence": "SERRSHNQRDPERRDRNSNQSKRRRVDDSDSESDRRNRRRRVEHSSRKSHRSR", "transcriptional activation domain activity": 43800}
{"sequence": "LSVSLVYNSAYLLQRISFWVISFSTYTLPTWLFTLFSTSLTFTMNFTTLLIIV", "transcriptional activation domain activity": 78700}
{"sequence": "IRYWTWMVWVIIIGSTLAFHVWIAIYSQFDVFTFESELFYLYTTLNFWTCIVF", "transcriptional activation domain activity": 57100}
{"sequence": "WDWARRYHCLAWGGEVSLLSFLPLLPVCLLSWLCRVSPIKWALVAVFFFWLLG", "transcriptional activation domain activity": 65900}
{"sequence": "MGDIKKISCIFFSFIFGLVLFFFVIIITIICILWIWAWDFWACFGSGLGLLVC", "transcriptional activation domain activity": 47100}
{"sequence": "KKGGKAAKSADRPPSRSRLEEEYVFIDVVSSFLRAIRARVIHIRHGAIVLAHY", "transcriptional activation domain activity": 64100}
{"sequence": "VLMLIVSNLRLMIENFKKYGVLICLSCHDYRRQDVIYGSILYLLVPCHLFVAY", "transcriptional activation domain activity": 41900}
{"sequence": "MDYVWRRVRWIRVRKHMVFIATLLEPFTECMLVCLIGALSARHLFDIRLVVFY", "transcriptional activation domain activity": 49000}
{"sequence": "QENTLPATQANSSLLETYPIVQSNPVTTTIKESPNSIMAGWDNWESDMVWRDV", "transcriptional activation domain activity": 90100}
{"sequence": "FTKTIMHITLILNILMNMCVAPTLLPLQVYYWLTKYYCACHGCLPHFTVIALF", "transcriptional activation domain activity": 60900}
{"sequence": "ASASREKGKGKGREEEKKEGESKGKEKGRKEEEKGGEEKGGEEEDDEDEDEDE", "transcriptional activation domain activity": 30900}
{"sequence": "AVKAEPESTAPSLVKEENTEDTKPAPSSTAPAEPSSGGMFRKRKAPAAGAGSR", "transcriptional activation domain activity": 39900}
{"sequence": "MMACLVSGIGWCLLYFTCMYLLLIYYILSLFYPPLASCNSFSFFFLSFFFFAG", "transcriptional activation domain activity": 67200}
{"sequence": "MCLFVLCLGLLVFFPTRYLLRSAWIKFIKYFNLFLRIIDLGCLFCIPCLIIKY", "transcriptional activation domain activity": 42500}
{"sequence": "RRDILHRAIVFEGDAARSGTASTKWRSEVRGSARKMRPQKGSGRARLGDKKSP", "transcriptional activation domain activity": 15600}
{"sequence": "SASASASGATASASASAAAGAGGKGGFGGKGGFGGGFGGKGQGGKGGKGGAAA", "transcriptional activation domain activity": 34000}
{"sequence": "MRVGVGGLLWLLCGSPFFFLHFISFVFLFFWSLLFFLFCRALHTPFSSYYNYH", "transcriptional activation domain activity": 72000}
{"sequence": "RHLGSLAYLGNTAVGEFGWGYKMIGGLYAQYLWRSVYWSKQVSLRTRINLSID", "transcriptional activation domain activity": 54500}
{"sequence": "KKAKKGGDEAGAKGSGKPKKPAGEADGSVAAEGGAAKGKARKAASSEPKKGAK", "transcriptional activation domain activity": 27900}
{"sequence": "MTQLYPFFLLFFAGLTMLLLLNHTFLPRVSVKSVKSLFRCNVRGFGTFFLFFL", "transcriptional activation domain activity": 43800}
{"sequence": "MYHPPWVLVGKCGSKEVRDELARHQLIACSRDLSVHVLKVDLLRKSWLLGHWR", "transcriptional activation domain activity": 58900}
{"sequence": "SSWIKWVFLFARYFPLLAGLCGRIIDSIVLYKHPIPIPLNALRIWYICQVLII", "transcriptional activation domain activity": 59300}
{"sequence": "ICISILLIPGDLVTVFSRIGRSEAANIAFSIVLMPSMWSGYFWISLCYLSFWT", "transcriptional activation domain activity": 52700}
{"sequence": "EFPAPPARPPPSHTAPPAPPPPPPPPPPPAAGGGVPPPPPPPPPPATGGAPAP", "transcriptional activation domain activity": 30300}
{"sequence": "FVYSLCIRYLLAPTPTFQEHGVSPRRSTGIALITLFFIILVIFLLTWMRLIHI", "transcriptional activation domain activity": 45100}
{"sequence": "RQLAWECLHHCSVQLRPSGATIRDSLRAAAHYVKHLAIQHKLVLVALQPFFAY", "transcriptional activation domain activity": 43100}
{"sequence": "MRYRPSEDLGKKLLLLFIYILFRGKLVVNPFHFFSSFLSFFFFFFFVFFALLL", "transcriptional activation domain activity": 35900}
{"sequence": "ILFFCLVANSDKLHMIIFAVVPIRCVFPVFFLIFEVIINCWLPLVWHLLYNLT", "transcriptional activation domain activity": 43800}
{"sequence": "EKRGLDTKNIYVGAEPFDAELRQRLESEQSFSFRSTDIIHFVAMLLIRYLFDL", "transcriptional activation domain activity": 59300}
{"sequence": "APTTSKKRGRKADTNSDDAGSPSEPRRLRRSHEACARCRSKKIKASPVGRHRP", "transcriptional activation domain activity": 30900}
{"sequence": "ESAAASSNQSSAPASAPTPNAPPSTANAEGGENKPKPSRRRGRGGGGGGQKQN", "transcriptional activation domain activity": 27400}
{"sequence": "MTTLYISFLFFLFCASFTFCTIFFFFFFFFTQWLYSSPLHLSLSLSLLFLFLI", "transcriptional activation domain activity": 65100}
{"sequence": "TDEAESKKAEEVPKTAEEAKPEESKAEETAMADETPKTEEAKPEDVKVEAHKE", "transcriptional activation domain activity": 19400}
{"sequence": "SLDHTSLWIRRSVLSFSIEQIKKVFFQLFSTWYIFIFQLPYFPEWLWKNKTYP", "transcriptional activation domain activity": 49100}
{"sequence": "EAGREAGKAGREEKQVKQDEERTAEDTETGKHEEDRNGEQKQRDRKTRRGKIR", "transcriptional activation domain activity": 25300}
